Experimental data as given in a protein production outcome set (Wang et al. 2014).

Experiment: label from the status in PepcDB records

| Sequence | protein production |
| --- | --- |
| MSDICVIIAAYNAEATIAQAVTSALAEAEVAEVVVVDDASSDATAEAALAASDGSGRLIVERQAQNGGPSAARNRAVALSQAPRIAILDADDFFLPGRFARLDPDLDLAADNIVFVTPEHAARLDPTNLPAAPREVEMLDAERFALGNLAQGVHRGELGFLKPVMSRAFLTRHGLRYDERMWLGEDFDLYMRMLLLGARFGLTRAVGYAAVQRGASLSGRHRTADLAALEACCRAHLEMPASPATQEAMRRHLRQVQAKLLLRQFLDRKAEAGLGAALGFALAPPARFLPIAKGVARDKIAALRPPAPPRAERFLLPVLEHHHHHH | failed |
| MEIKRILVSRTDKIGDLVLSIPSFFMLKKMYPNAELVVIVRKYNVDIVKNLPYIDRIVIIDEYSKAELLEKIAYFKADVFIALYNDSYIASLARASKAKIKIGPISKLSSFFTYNKGVLQKRSLSLKNEGQYNLDLVTKLDRKRFAILEHHHHHH | failed |
| MGKGGDIVVGNGKKYAAPLLVLGCVVFGLGSLIVRSVPVGSYAIAFWRLLISVFVFWFLARFFRQKFPKNRKTVRYALTAGVFLAFDLALWHESIHAVGPGISTLLNSLQIFFLSAIGVFFFGERLSGLKKAGLISAVAGVAMIAGAEFGYNGNAVWGFASGLVSGLMLALSMVFVRKTHEIEPVALFPSMMILSLGGAVSLVVPALLMDGGALYPTTWKDAGLVLVYGVVMQCFAWAMVAYAIPLLSLSLTGLLLLSEPVAALFIDYFGLGKPIEGVQWAGVALTLSAIYLGSLKRQSSH | failed |
| MQTEIITQLVLIFPEILIALGGITLLLFGVYSKASSSLTVTGLAIALFVATIVIIIIFPKSGLFQTNALIIDSFGRYMKILTLIGALFALIMSVNFTSTQKFDIFEFPVLVLLATLGMMLMISAGNMLSLYMGLELQSLALYVLAAINRNNIKSSEAGIKYFALGALSSGLLLYGISLVYGFTGQIGFREIAVALKGENLPLGVIFGIVFILAGLAFKISAVPFHMWTPDVYEGAPTPITAFFAGAPKVAAMALIVRIIVMTFIPLENTDGSMPAWQQILVFMAIASMILGAFAAIGQSNIKRLMAYSSISHMGYALVGLASGDMLGIKSVILYMTIYLSMTIGSFAFILGMRSSDGNVEDIYDLSGLVKTNPFMAITMTIQLFSLASIPPMAGFFGKWYTFSAAVHAGLTPLAIVGMIASVVGAFYYLRLIKIMWFDDAKAHFIVLSNEFRFCLSFSAFFILSYTLFGIWFADLAERAATALF | failed |
| MVSLTMVPIDALLSKEVNAFIVQHKHASVAELMLRMPVFTVDSRWIAAQIEGWQKASQKLPLWASTENIIYPIRLSMEQCSSERTAHYKSTLMSGERLVDLTGGFGVDSFYLSKSFNEVIYIEQQEDLAEIAAHNFSTLNQNNIVVKTADSDEYLKDIAEKIDVIFLDPARRKEMRKVYKLSDCEPNVVALQSFYFSKADVILIKTSPMLDITEATRQLTGIKEIHVVSVDNECKEVLYLLEKNYSGKATYICAHDYKKQLQLFSFTIAAEQAVTLSYSAPLAYLYEPNPSILKAGGFNSITQKYEVFKLHASSHLYTSASEVSDFPGRTFKIKETVGYSKKDIQAAVPGGKANIQTRNFPDSVEAIRKKTGLKDGGNIFIFATTLHDLSKVLLICEKI | failed |
| MDFAFEKVARDWFVRWSKGRSEKYAGQVMRNFERWVFPAIGNLDIRQVRTADVVGCLRVMEARGIVDTLRKTKNSLKMVFAFAVGSGMMEINPVAQIGSGVFERLEHHHHHH | failed |
| MRLLISLIAGALFGGGLFVSGMTDTRKVQGWLDVFGDWDPTLAFVMGGAILPMLLAWRLTEGRKPLAGGSFPALPRPEMDHRLITGSVLFGMGWGLAGLCPGPAIASLSYGGVGGLIFLVAMLAGMAVAPRVGTQLDRLAATA | failed |
| MMAPNQFSSGDVIADRRADYARMLAESGDYPAAAELMEQALELAPRWTAGWFRFGEYHEKAGETAKAVAAYEKVAELDAEGLFAAELKLAVLGAAETPEQPPSRYVEGLFDDYADRFETSLVEKLDYSVPQKLAELIGKAATGDAFDTIVDIGCGTGLLGIEIRSLAKRLEGFDISQNMLAKADEKSLYDHLGQADLSLDAEASGLFTPVLTQHRADLVAAADVMMYLGSLETVMPLVSALLKPSGFFAFSVEDAGDEQGFVLRESLRYAHSKSYVIDLLERSGFSPMEIRKTTIRKDAGKPLSGILFLARAKA | failed |
| MLRVTPILLAVLYAFAMYHFSAWRTRRELDARSTELADPALKRLTDRLAAALGVARVPVHIYEIDPVNGLAAPDGRIFITRGFYRKYQSGEVTGEELTSVIAHELGHVALGHSRRRMIDFSGQNAMRTALAMLLGRFIPFFGVWIANMLTTLLAARLSRADEYEADAYAAALLTKAGIGVAPQKALFHKLDALTEQRAGVAPAWLLSHPKTAERIAALDRLEARWQAH | failed |
| MKKIAFFIFVILFSVGIYLIWHVLLEKALELKLATSANDLLLKLLAILGVFSMLVLFQGIISSYKKRQLKRILQKIDAMNGFEFEEYSKIFFTSKGFEVSITQKSGDYGADLIIEKDGIKWAVQVKRYSHKVSPKAIQEVVSSKAYYACEKACVITNSYFTQAAQKLAQANEVLLIDRDEWVRFLNEKR | failed |
| PRLYKEPSAKSNKFIIHNALSHCCLAGKVNEPQKNRILEEIEKSKANHFLILFRDSSCQFRALYTLSGETEELSRLAGYGPRTVTPAMVEGIYKYNSDRKRFTQIPAKTMSMSVDAFTIQGHLWQSKK | not failed |
| MLYPNERKSSVHAIPYQDQLKQVQSAVDEFQKANGGLLPIQTKDMSTPLYQKYPIDFNRLAPRYIAEPPSTAFESGGDYQYVLVDVENDPTVKLIDLKMAEKIRDVKLRIQMYRQEHQYPPYKDVLSRDLFTLDEKKLGDGSSLTVTSPISGNSLPLMIDGDGEIYADYRTELASCLKKSKKTFKPGTEIQDMIWHETPFVPAFSVKYTVNDKQEPVFLENDMKKELEHHHHHH | not failed |
| MLTPVADGVLVHQSELLRNNTVVVRGESGVLIVDPGLTTGEMGCLAEDLRQLGQPVVAGFATHPDWDHALWHADLGDVPRYGTARCSAYLRELRSEEGWQARVAEGLPPEIADETPLELFGLIVGLPAGAELIPWNGPEVRVIEHPAHAPGHAALLVEDRGVLVAGDMLSDLFVPMLDDTEHPVEDYLTGLRLLEKVADDVEVLVPGHGSVATADQVQVRIGRDREYLHALRDGRAPDDPRLGSSVEPGWEWVNDIHEGQAARMARRSERNGADG | failed |
| MMPPNQPLATYLDDAPSHGGMMRERRYYRAYGLTVASDVALPELEPTEPAAADILIAIGTIDMPKPSSEAATIFRFEPDRQYLAWHAVGAFLISDADRIDIEPAPGVDDALLAFPLLGPVMALLLHQRGLLVLHASAIAAAGKGAIFMGDKGAGKSTTASALIRAGHELLTDDVVALDLARPDAPMIVAGFPQIKLAADAAAAISLGRAEVRPQVHPAIEKMQHRLHGAFSGGMVPATRIYVLERGAKAAITALPGIAALPAIIKFSYVTRFGRAALSGDFAALHLRQCSAIANHVGVFRLEVPTGLDRIGEAVALVESDLAAGDLAAGRRRR | failed |
| MINLWPLLLPAAAWSGWWLANRSNSNKDAHVHNRLSREYVVGLNYLLNEQSDKAVDVFIKLLEVDSDTVETHLALGSLFRRRGEVDRAIRIHQNLIARPQLSIQQRKEALMALGQDYMSAGVFDRAERIFLEVVELGGSRDTSSLQGLLAIYQQEKAWEKALDIIKKLEISTGASFHNQAAHYYCEMASQALKINAMDRAIYCIKQAMNVDPESVRASLMNATIEIKEGRYKQAIRSLKRVPQQDAEFLTEIIEPLVLCHKELDSMPDCIHYLEQTLEKHPRASVIFVIADYLRQNKGMDIAIDFVADNLSKHPSIRGLNRLIYWHLESAHGKVREKLQMLYDITSKFLDNKPIYRCGHCGFGGKHLHWHCPSCKQWGRMKPIHGLEGD | failed |
